Results from the RNAGym collection of RNA variant scans (doi:10.1073/pnas.2313332121).

B1: TPR t1 (parent)
chain: GACCAAUCUGCCCUCAGAGCUCGAGAACAUCUUCGGAUGCAGAGGAGGCAGGCUUCGGUGGCGCGAUAGCGCCAACGUCCUCAACCUCCAAUGCAUCCCACCACAUGAUGAUGCCUGAAGAGCCUUGGUUUUUUG

Variants of: B1
Assay: polymerase ribozyme fitness, log enrichment relative to wild type (log ratio); higher = more active; in vitro selection for triplet polymerase activity
Summary of the method: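 Mutant libraries of both subunits of a heterodimeric triplet polymerase ribozyme were PCR-built, transcribed, and selected once in triplicate, with frozen incubation at −7 °C and capture of gel-excised extended constructs on streptavidin beads before RT-PCR. Illumina sequencing of input and output libraries was filtered to genotypes with ≥10 input reads and ≥1 read per output. Fitness is the logarithm of genotype enrichment over wild-type enrichment, using inverse-variance-weighted replicate averages. The logarithm is base 2.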

Row | Variant | polymerase ribozyme fitness (log ratio)
1 | G47U G51U C73U | -6.37
2 | G47U A95C U96A | -4.33
3 | G47U U92G G117C | -7.27
4 | G47U G61C U126G | -4.45
5 | G48A C56U C70A | -4.74
6 | G48A C62A C73U | -3.55
7 | G47A C70U | -1.86
8 | G47A C82G C123G U125A | -1.38
9 | G47U A100C U106A C124G | 0.694
10 | G47U G69U | -0.915
11 | G47U A50U U59C C73A U78A U133A | -2.31
12 | G47U A95C G128C | -4.33
13 | G48A C85U | -0.302
14 | G47U U96A | -2.1
15 | G47C U55G G71U U106A U129A G135C | -2.24
16 | G48A C89A | -1.71
17 | G47A G51C G77C C80U U87C C124G U131G | -1.89
18 | G47A U78C C88A C97A U106A | -5.69
19 | G47U G93U | -2.97
20 | G47U G77A | -2.15
21 | G47U G77U | -2.07
22 | G48A C70U C115A | -1.87
23 | G47A G71C | -1.56
24 | G48A C70A G120U G128A G135A | -2.26

Row | Variant | polymerase ribozyme fitness (log ratio)
25 | G48A C53U G63U G110A | -3.27
26 | G47C C49G | -2.19
27 | G47U A100U U116A G117A U132A | -5.1
28 | G48A G77A C88U | -0.845
29 | G48A C53A U59G G61C C79U C101A U126A | -3.84
30 | G47A G48C A100U U112A | -0.897
31 | G48A G69A | -4.63
32 | G47A C73U G117U G135U | -5.34
33 | G47A G61A C85A C98A | -6.7
34 | G47U G71A U87A | -4.27
35 | G47A C49A U132A | -1.53
36 | G48A G60U | -0.531
37 | G47C C56G C72G C82U C97U U112A | -2.21
38 | G47A C114A | -2.59
39 | G47C G77C C98U G113C U130C | -6.15
40 | G47C G117A | -2.73
41 | G47A C53U A118U | -0.687
42 | G47C C64A C104U | -7.34
43 | G47U G120A | -0.734
44 | G48A G52U U55C U125A | -2.1
45 | G47U G61C A111C | -2.97
46 | G47A C114A C123G U125A | -2.46
47 | G47A C64U G117U | -4.27
48 | G48A C64U C73A | -0.705

Row | Variant | polymerase ribozyme fitness (log ratio)
49 | G47U A90U G117C | -4.37
50 | G47C C86U A105U A121C | -1.01
51 | G47U C49G C70U U87C A100C | -3.16
52 | G47A C123A | -0.394
53 | G47A C123U | -0.261
54 | G47A G60A C85G C123U | -3.19
55 | G47A G69U C86A C97U C115U C124G U125C | -0.107
56 | G47A U96G G110A | -3.19
57 | G48A C53A U59G G61C | -0.194
58 | G48A C70U | -1.3
59 | G47C C89U C124G | -0.507
60 | G48A C62A C82A C85G G110C U133A | -7.12
61 | G47A C73A U126A | -2.35
62 | G47C U125A | -2.59
63 | G48A G71C A105C | -4.88
64 | G47C U54G G58C G69U | 1.13
65 | G47A C86A A90G G117U G120C | -0.329
66 | G48A A66U U78G | -1.56
67 | G47A G135U | -2.25
68 | G48A C73U A119G | 0.718
69 | G47C C72U C94U | -2.45
70 | G47A G51A | -4.37
71 | G48A G52A G60A C73U C82G C88U C102G | -5.86
72 | G47A C104A | -2.7

Row | Variant | polymerase ribozyme fitness (log ratio)
73 | G47A C79U | -1.59
74 | G47A G52A G120A | -0.716
75 | G47A C53U | -1.23
76 | G47U C124A U130G | -0.902
77 | G47U C49G | -0.991
78 | G47C U55G G63A C104U | -3.2
79 | G47U C53A U129G | -2.44
80 | G48A G63U | -0.443
81 | G47U G61U G110A | -3.87
82 | G47U C88G U96A U112A | -6.98
83 | G47U C53U G120U | -1.25
84 | G47A C72A C86A U96G G117U | -4.69
85 | G48A C49G C56U | -0.3
86 | G47A A50U | -1.57
87 | G47A A75G U96C | -0.307
88 | G47C C72G | -2.9
89 | G47U C53A C114A | -2.64
90 | G47U G51U G60C | -3.98
91 | G47A G60U C101A | -0.894
92 | G48A G77U | -2.11
93 | G48A C123G | 0.439
94 | G47U C80A G113A | -6.73
95 | G47A C102G | -5.8
96 | G47A C102A | -2.65

Row | Variant | polymerase ribozyme fitness (log ratio)
97 | G47C A111U | -4.54
98 | G47U U78G G135A | -1.83
99 | G48A G63U C101A | -2.69
100 | G47C G58A | -1.77
101 | G47U G48U C79U | -2.83
102 | G47A A50U G60C G77A | -5
103 | G47U C123A | -0.877
104 | G48A C115U C124U | -1.31
105 | G47A G71U C123A | -0.967
106 | G47A C101U G122A | -1.99
107 | G48A G63C C82G G113U U132A | -3.71
108 | G47C U112G C115U U130A | -5.2
109 | G47A G60U G93C C101A | -4.1
110 | G47A A103C G122A | -6.8
111 | G48A G63A U92C | -3.14
112 | G47U C72U U78C G113C | -3.65
113 | G47U G63U C85A | -3.29
114 | G47A G60A C124G U133A | 1.3
115 | G48A G58A U78C G110A | -1.9
116 | G47U C76A C79A C80G C94G A100C U116G C124U U129A | -5.73
117 | G48A G60U C104A | -1.82
118 | G47U C101U U125G U126C | -2.99
119 | G47A U55A | -0.45
120 | G47U C80G U87A C101U C123A G127A | -5.76

Row | Variant | polymerase ribozyme fitness (log ratio)
121 | G47U A119U | -1.82
122 | G47C C70U C89U | -4.18
123 | G47A A50G C115A | -1.8
124 | G47A A91C G117U U133G | -4.6
125 | G47C G48A C86U A90U | -2.46
126 | G47A A90C U112A | -2.17
127 | G47A G120A U126A | -1.73
128 | G47C G113U | -4.11
129 | G47C G113C | -3.85
130 | G47U U81A G122U C123U U130C U131A | -2.99
131 | G47U G58C C82U C86U | -1.04
132 | G47C C123G | -1.31
133 | G47U C56U A95U | -1.34
134 | G47A U133A | -1.33
135 | G47U C115A | -2.9
136 | G47U C72G U81A | -3.46
137 | G47U C73G C82U | -2.22
138 | G47C A111G C123U | -3.06
139 | G48A G63C C72U C124G | -0.71
140 | G47A C124U | 0.0616
141 | G47U U78G | -1.6
142 | G47U C98U | -4.36
143 | G48A | -0.658
144 | G47A C49A C124U | 0.655

Row | Variant | polymerase ribozyme fitness (log ratio)
145 | G47C A50U C72U U81C C114U | -5.1
146 | G48A G63A C86U U116A C124U | -2.18
147 | G47U U87A | -2.55
148 | G47U G57A | -1.73
149 | G47A G51A G71U C98U A105U U112G | -7.71
150 | G47U C70U C82G G120U C124G G127A | -0.105
151 | G48A G63A C101A | -2.45
152 | G48A C72G A103U A119G | -3.79
153 | G47U G117U | -2.78
154 | G47A G61A U116A U129A | -4.01
155 | G47U C53U C79A | -4.4
156 | G47U C98U U112A | -3.7
157 | G47A A50U C56A G69U G77C | -1.54
158 | G47U C72U C94A | -2.85
159 | G47U G110A | -2.29
160 | G47U G110U | -3.1
161 | G47U G48U U59A C79U | -3.11
162 | G47U G60U U112G | -1.51
163 | G47A C85G G113A U132A | -2.45
164 | G47A C76G A90G | -0.228
165 | G47C C70U | -2.2
166 | G47U C114U | -3.33
167 | G47U C114A | -2.77
